Assay results as given in publication PMC4150798 (Nucleic Acids Research, 2014).
Each block holds one molecule with its values, some of them ahead of it.

Experiments:
[1] = biological target: CPEB4 RRM1–RRM2 (463–665) (human) (UniProt Q17RY0); assay: native MS
[2] = biological target: CPEB4 RRM1–RRM2 (463–665) (human) (UniProt Q17RY0); assay: semi-native SDS PAGE
[3] = biological target: the molecule itself; assay: semi-native SDS PAGE

stoichiometry N [1]: 2
maximum dimeric population [2]: < 10%
stoichiometry N [2]: 2
Molecule: CPEB4 RRM1–RRM2 (463–665) (from UniProt Q17RY0 463-665) (domain or fragment)

B1: CPEB4 RRM1 (463–573) (domain or fragment, human, UniProt Q17RY0 463-573, looked up)
chain: NGERVERYSRKVFVGGLPPDIDEDEITASFRRFGPLIVDWPHKAESKSYFPPKGYAFLLFQDESSVQALIDACIEEDGKLYLCVSSPTIKDKPVQIRPWNLSDSDFVMDGS
stoichiometry N [3]: 2
